Data: PMC12279188

Biological target: KSHV gB653-mut ectodomain (Kaposi's sarcoma-associated herpesvirus (KSHV), strain GK18) (UniProt F5HB81)
Experiment: cryo-EM structure

Substance: KSHV gB653-mut ectodomain (from UniProt F5HB81 27-653) (domain or fragment)
- stoichiometry N: 3
